Test [1] deals with T1, human CR2 on primary human cells (B cells in PBMCs; tonsil follicular dendritic cells) (human, UniProt P20023 21-1033).
T1 construct: Endogenous CR2 on primary human CD20+ B cells or tonsil FDCs; also called CD21
T1 sequence: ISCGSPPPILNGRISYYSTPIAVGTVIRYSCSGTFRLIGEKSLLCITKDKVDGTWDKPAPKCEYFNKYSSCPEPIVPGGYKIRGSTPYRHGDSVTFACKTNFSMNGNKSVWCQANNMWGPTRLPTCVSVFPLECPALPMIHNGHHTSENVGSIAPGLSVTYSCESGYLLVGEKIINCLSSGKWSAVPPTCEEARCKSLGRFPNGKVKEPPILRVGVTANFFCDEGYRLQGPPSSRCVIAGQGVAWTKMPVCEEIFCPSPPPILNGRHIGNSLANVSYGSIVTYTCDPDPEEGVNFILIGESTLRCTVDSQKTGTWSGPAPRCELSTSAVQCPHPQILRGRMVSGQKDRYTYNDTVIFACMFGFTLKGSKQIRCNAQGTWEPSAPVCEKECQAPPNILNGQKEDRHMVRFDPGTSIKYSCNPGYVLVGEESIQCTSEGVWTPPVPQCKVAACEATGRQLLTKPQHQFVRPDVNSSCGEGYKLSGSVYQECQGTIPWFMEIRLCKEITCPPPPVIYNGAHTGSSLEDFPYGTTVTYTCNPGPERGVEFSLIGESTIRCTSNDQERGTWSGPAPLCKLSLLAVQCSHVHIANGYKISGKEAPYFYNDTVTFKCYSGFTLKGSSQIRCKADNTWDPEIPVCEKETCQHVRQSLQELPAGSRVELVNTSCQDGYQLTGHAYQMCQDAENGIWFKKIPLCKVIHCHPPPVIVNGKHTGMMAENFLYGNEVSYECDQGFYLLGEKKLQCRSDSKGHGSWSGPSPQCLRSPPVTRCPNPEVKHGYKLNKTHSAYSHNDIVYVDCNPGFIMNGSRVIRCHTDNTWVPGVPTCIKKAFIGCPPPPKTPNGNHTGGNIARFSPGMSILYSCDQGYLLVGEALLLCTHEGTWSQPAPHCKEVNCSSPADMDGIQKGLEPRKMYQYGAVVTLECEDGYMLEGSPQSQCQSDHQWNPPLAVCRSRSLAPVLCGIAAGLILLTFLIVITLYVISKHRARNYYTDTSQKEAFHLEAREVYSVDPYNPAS
Briefly: flow cytometry; inhibition of C3dg:Streptavidin-APC complex binding to CD20+ B cells in human PBMCs, mAb pre-incubated.

Test [2] deals with T2, recombinant soluble cynomolgus macaque CR2 (cynomolgus macaque, UniProt A0A2K5URG6 21-972).
T2 construct: also called Cyno CR2; cyno CR2 antigen
T2 sequence: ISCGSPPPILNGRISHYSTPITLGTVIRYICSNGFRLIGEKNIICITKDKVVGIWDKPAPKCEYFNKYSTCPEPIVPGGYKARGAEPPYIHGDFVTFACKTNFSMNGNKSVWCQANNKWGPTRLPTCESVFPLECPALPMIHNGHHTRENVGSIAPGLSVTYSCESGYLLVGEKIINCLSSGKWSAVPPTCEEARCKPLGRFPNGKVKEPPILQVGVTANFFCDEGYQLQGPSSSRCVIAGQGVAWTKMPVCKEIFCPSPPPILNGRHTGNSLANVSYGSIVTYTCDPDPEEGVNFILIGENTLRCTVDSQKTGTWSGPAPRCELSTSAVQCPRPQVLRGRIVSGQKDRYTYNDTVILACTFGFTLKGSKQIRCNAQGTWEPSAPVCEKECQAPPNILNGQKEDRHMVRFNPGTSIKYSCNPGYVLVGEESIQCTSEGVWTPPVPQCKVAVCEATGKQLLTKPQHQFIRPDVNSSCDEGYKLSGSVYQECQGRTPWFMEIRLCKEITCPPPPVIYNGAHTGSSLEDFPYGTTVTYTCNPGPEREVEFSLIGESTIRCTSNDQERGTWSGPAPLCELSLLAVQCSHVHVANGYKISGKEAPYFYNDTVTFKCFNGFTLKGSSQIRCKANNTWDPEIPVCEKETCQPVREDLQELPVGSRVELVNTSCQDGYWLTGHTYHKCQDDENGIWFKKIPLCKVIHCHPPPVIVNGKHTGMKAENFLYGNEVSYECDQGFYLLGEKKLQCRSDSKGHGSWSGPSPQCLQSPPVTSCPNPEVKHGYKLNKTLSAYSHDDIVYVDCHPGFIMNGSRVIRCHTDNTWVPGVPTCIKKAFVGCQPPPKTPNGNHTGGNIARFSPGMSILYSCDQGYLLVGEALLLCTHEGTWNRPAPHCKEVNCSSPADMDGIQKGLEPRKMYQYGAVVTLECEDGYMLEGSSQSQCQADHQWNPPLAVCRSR
Briefly: SPR (BIACORE T200), HEK-expressed antibody captured on Protein A, soluble CR2 as analyte, 25 C, equilibrium model. A general note: SPR reads the build-up and loss of mass on a sensor chip optically.

Test [3] addresses T3, recombinant soluble human CR2 (human, UniProt P20023 21-971, limits assumed).
T3 construct: it includes the transmembrane and cytoplasmic parts, which a soluble form would lack; also called human CR2 antigen
T3 sequence: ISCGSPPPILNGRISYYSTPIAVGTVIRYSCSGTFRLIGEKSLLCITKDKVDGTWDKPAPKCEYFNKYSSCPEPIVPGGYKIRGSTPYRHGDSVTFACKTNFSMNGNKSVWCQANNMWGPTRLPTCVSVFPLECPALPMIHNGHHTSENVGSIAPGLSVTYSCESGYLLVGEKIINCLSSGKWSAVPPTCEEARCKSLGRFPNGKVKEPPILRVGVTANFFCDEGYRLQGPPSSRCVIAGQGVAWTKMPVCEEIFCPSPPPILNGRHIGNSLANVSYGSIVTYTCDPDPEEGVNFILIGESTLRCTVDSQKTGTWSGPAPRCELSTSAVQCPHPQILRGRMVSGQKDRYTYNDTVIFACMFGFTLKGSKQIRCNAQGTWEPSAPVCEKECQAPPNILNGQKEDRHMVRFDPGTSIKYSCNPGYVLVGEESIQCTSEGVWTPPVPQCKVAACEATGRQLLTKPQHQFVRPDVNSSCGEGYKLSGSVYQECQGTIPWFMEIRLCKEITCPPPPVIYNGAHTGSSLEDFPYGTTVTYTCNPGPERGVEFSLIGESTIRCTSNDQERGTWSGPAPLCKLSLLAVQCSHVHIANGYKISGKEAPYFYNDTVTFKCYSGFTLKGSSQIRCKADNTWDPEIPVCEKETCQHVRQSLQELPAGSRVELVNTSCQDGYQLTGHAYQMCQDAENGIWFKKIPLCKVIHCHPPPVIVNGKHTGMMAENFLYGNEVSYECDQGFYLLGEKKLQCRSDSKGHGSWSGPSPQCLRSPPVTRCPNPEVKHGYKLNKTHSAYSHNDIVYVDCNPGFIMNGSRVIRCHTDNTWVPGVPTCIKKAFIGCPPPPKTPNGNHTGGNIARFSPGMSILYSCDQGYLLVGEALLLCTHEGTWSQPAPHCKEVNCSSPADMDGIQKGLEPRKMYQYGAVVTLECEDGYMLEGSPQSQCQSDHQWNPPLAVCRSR
Described as above.

The target of test [4] is T1, human CR2 on primary human cells (B …). In words: flow cytometry on primary human tonsil FDCs; unlabelled mAb 1053 titrated, then saturating mAb 1053-PE (1 ug/ml).
Test [5] shares this target. In words: flow cytometry; inhibition of serum-opsonised PnPS14 binding to CD20+ B cells in human PBMCs, mAb pre-incubated. (A flow cytometer gives signals particle by particle.)
The target is the same in test [6]. In words: flow cytometry; inhibition of C3dg:streptavidin-APC ligand complex binding to primary human tonsil FDCs, mAb pre-incubated.

B1: mAb 1053 (antibody, human IgG1, kappa, V domains shown)
VH: QLQLQESGPGLVKPSETLSLTCTVSGGSISSDSYYWGWIRQPPGKGLEWIGSIHYSGSTYYNPPLESRVTISVDTSKNQFSLKLSSVTAADTAVYYCAREGGPRHGWSWGQGTLVTVSS
VL: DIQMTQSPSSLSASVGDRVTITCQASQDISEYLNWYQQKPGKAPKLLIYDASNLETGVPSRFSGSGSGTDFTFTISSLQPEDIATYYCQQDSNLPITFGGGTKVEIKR
notes: CHO-expressed unless stated otherwise
Regarding B1, the IC50 in test [1] was 0.0119 nM; in test [5] it was 0.0379 nM; in test [6], 0.047 nM. For the same molecule, the equilibrium dissociation constant (Kd) in test [2] amounted to 0.287 nM; in test [3] it was 0.257 nM. The same molecule showed a 50% effective concentration (EC50) in test [4] of 0.0622 nM.

In general, IC50 refers to the point on the concentration scale where inhibition reaches its midpoint. A word on the Kd: it is the concentration at which binding is half-saturated. Usually EC50 stands for the concentration giving half of the maximal effect.

The record behind these values is patent US20230032643A1 (GlaxoSmithKline, published 2023).
